From paper PMC7144476 (Molecular plant, 2015)

Target: MBP-BSU1 (Arabidopsis, UniProt Q9LR78 1-793)
Assay: pull-down

Chain of MBP-BSU1 (Q9LR78 whole entry): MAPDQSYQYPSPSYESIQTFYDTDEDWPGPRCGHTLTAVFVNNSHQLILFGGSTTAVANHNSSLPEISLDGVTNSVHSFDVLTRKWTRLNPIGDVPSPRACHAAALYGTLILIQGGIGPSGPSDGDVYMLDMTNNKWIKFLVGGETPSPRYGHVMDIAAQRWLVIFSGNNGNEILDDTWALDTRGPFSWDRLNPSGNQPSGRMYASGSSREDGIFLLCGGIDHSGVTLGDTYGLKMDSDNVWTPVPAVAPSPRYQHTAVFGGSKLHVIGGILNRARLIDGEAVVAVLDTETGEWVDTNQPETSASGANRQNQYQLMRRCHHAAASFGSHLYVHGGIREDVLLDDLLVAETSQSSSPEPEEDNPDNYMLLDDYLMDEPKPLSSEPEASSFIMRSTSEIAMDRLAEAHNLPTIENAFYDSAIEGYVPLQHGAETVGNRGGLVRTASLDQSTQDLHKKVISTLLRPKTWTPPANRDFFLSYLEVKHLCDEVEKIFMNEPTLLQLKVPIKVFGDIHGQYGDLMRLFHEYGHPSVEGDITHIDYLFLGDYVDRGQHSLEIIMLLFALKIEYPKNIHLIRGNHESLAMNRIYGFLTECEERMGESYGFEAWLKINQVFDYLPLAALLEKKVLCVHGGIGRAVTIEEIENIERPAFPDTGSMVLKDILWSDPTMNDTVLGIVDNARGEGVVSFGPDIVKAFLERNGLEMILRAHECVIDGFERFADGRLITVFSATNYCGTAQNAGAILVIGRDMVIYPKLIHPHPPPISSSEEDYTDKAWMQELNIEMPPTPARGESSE

- binding result: binds
B1: BSK1-myc (natural protein, UniProt Q944A7 1-512, looked up)
chain: MGCCQSLFSGDNPLGKDGVQPQPLSQNNHGGATTADNGGSGGASGVGGGGGGGGIPSFSEFSFADLKAATNNFSSDNIVSESGEKAPNLVYKGRLQNRRWIAVKKFTKMAWPEPKQFAEEAWGVGKLRHNRLANLIGYCCDGDERLLVAEFMPNDTLAKHLFHWENQTIEWAMRLRVGYYIAEALDYCSTEGRPLYHDLNAYRVLFDEDGDPRLSCFGLMKNSRDGKSYSTNLAYTPPEYLRNGRVTPESVTYSFGTVLLDLLSGKHIPPSHALDMIRGKNIILLMDSHLEGKFSTEEATVVVELASQCLQYEPRERPNTKDLVATLAPLQTKSDVPSYVMLGIKKQEEAPSTPQRPLSPLGEACSRMDLTAIHQILVMTHYRDDEGTNELSFQEWTQQMKDMLDARKRGDQSFREKDFKTAIDCYSQFIDVGTMVSPTVFGRRSLCYLLCDQPDAALRDAMQAQCVYPDWPTAFYMQSVALAKLNMNTDAADMLNEAAQLEEKRQRGGRGS
